Measured values: paper PMC6735382

Legend:
[1] = target: Clover-PPARγ1 (human peroxisome proliferator-activated receptor gamma isoform 1, N-terminally labeled with Clover) (human) (UniProt P37231)
[2] = target: Clover-PPARγ1 (human peroxisome proliferator-activated receptor gamma isoform 1, N-terminally labeled with Clover) (human) (UniProt P37231); assay: FRET or BRET; flow cytometry-based FRET (Clover donor, mRuby2 acceptor) in living, stably transduced HEK293T cells; percent FRET-positive among Clover/mRuby2-double positive cells and FRET efficiency from fluorescence medians; N-CoR2 WT cells also treated 24 h with DMSO, 1 µM rosiglitazone, 10 µM GW9662 or both

Sequence of UniProt P37231 (P37231 29-505): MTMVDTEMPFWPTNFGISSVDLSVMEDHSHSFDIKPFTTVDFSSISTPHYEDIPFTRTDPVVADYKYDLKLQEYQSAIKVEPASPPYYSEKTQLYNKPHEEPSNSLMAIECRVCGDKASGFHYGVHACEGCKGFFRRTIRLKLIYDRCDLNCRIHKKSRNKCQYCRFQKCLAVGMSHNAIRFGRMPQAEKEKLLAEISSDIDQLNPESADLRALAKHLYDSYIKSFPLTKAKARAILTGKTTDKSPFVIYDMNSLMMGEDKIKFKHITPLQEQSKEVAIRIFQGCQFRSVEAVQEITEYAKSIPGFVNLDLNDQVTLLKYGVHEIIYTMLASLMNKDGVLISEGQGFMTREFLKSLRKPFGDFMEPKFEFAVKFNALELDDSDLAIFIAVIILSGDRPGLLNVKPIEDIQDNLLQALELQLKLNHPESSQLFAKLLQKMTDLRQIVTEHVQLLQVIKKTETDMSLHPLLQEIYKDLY

N-CoR2 WT-mRuby2 (N-terminally truncated human nuclear receptor co-repressor 2 with ID2 and ID1, C-terminally labeled with mRuby2) (domain or fragment)
PPARγ-dependent transactivation (PPRE reporter p(AOX)3-TK-Luc) in HEK293T cells, 1 µM rosiglitazone 24 h against DMSO [1]: 3.5 fold
percent FRET-positive cells [2]: 70%
